Test results published in PMC2841617, “A Combination of Independent Transcriptional Regulators Shapes Bacterial Virulence Gene Expression during Infection”.

Tests used:
[1] = test system: CcpA (Streptococcus pyogenes (group A Streptococcus; strain of the clone not stated here)); assay: fluorescence polarization; details: CovR FP: 1 nM fluorescein DNA, 20 mM Tris pH 7.5, 50 mM NaCl, 2 mM DTT, 10 ug/mL poly(dI:dC), 25 C, CcpA FP as in ref 30 (buffer not given), with or without …
[2] = test system: CcpA;HPr-Ser46-P (Streptococcus pyogenes (group A Streptococcus; strain of the clone not stated here);Streptococcus pyogenes (group A Streptococcus)); assay: fluorescence polarization; details: CovR FP: 1 nM fluorescein DNA, 20 mM Tris pH 7.5, 50 mM NaCl, 2 mM DTT, 10 ug/mL poly(dI:dC), 25 C, CcpA FP as in ref 30 (buffer not given), with or without …
[3] = target: CovR (unphosphorylated) (Streptococcus pyogenes MGAS5005 (serotype M1)) (UniProt O87527); assay: fluorescence polarization; details: CovR FP: 1 nM fluorescein DNA, 20 mM Tris pH 7.5, 50 mM NaCl, 2 mM DTT, 10 ug/mL poly(dI:dC), 25 C; CcpA FP as in ref 30 (buffer not given), with or without …
[4] = target: CovR-P (phosphorylated) (Streptococcus pyogenes MGAS5005 (serotype M1)) (UniProt O87527); assay: fluorescence polarization; details: CovR FP: 1 nM fluorescein DNA, 20 mM Tris pH 7.5, 50 mM NaCl, 2 mM DTT, 10 ug/mL poly(dI:dC), 25 C; CcpA FP as in ref 30 (buffer not given), with or without …
[5] = target: CovR (unphosphorylated) (Streptococcus pyogenes MGAS5005 …, UniProt O87527 1-228); assay: fluorescence polarization; unphosphorylated; CovR FP: 1 nM fluorescein DNA, 20 mM Tris pH 7.5, 50 mM NaCl, 2 mM DTT, 10 ug/mL poly(dI:dC), 25 C; CcpA FP as in ref 30 (buffer not given), with or without 10; details: protein: recombinant, chain copies: 2, label: fluorescein

nga/slo cre
Kd [1]: 674 nM
Kd [2]: 42 nM

speB cre
Kd [1]: 100 nM
Kd [2]: 5 nM

amyA cre
Kd (nM (unit implied)) ([1]; no HPr-Ser46-P): 160
Kd (nM (unit implied)) ([2]; 10 uM HPr-Ser46-P): 32

hasA promoter probe
Kd [3]: 2200 nM
Kd [4]: 640 nM

arcA cre
Kd ([1]; no HPr-Ser46-P): 219 nM
Kd ([2]; 10 uM HPr-Ser46-P): 18 nM

spyCEP cre
Kd [1]: 257 nM
Kd [2]: 33 nM

B1: arcA promoter probe (structured_DNA)
DNA: ACAAAAACCAATTAGAAAGACCCCCTCTTTCTAATTGGTTTTTGT
Kd ([5]; hairpin (20 bp stem, C5 loop)): 637 nM

B2: amyA promoter probe (structured_DNA)
DNA: CAACCAAACTCTCATTAGAAACCCCCCTTTCTAATGAGAGTTTGGTTG
Kd ([5]; hairpin (21 bp stem, C6 loop)): 245 nM
